“And” between values parts separate entries of the source, which are not always exact repeats. Equal values may be shown once.
Tests used:
TNF-α [1] = target: T1, TNF-α (UniProt P01375 77-233, biotinylated (sites not given)); assay: Octet BLI, biotinylated TNF-α on streptavidin tips, A6+Fc at 370 nM
T1 construct: Bought protein; also called biotintylated TNF-α soluble protein
Method: (§1) The target protein was biotintylated TNF-α soluble protein (R&D Systems) and is at a concentration of 0.25 ug/ml for loading onto the streptavidin sensor tips. […] The Octet was run using the manufacturers protocol for Basic Kinetic Assay.

TNF-α [2] = target: T1, TNF-α; assay: Octet BLI, biotinylated TNF-α on streptavidin tips, A6 at 290 nM
Method: as §1

HMGB1 = target: T2, HMGB1 (UniProt P09429 1-215, limits assumed, biotinylated in the RAGE assay (sites not given)); assay: Octet BLI
T2 construct: also called biotinylated HMGB1
T2 sequence (looked up): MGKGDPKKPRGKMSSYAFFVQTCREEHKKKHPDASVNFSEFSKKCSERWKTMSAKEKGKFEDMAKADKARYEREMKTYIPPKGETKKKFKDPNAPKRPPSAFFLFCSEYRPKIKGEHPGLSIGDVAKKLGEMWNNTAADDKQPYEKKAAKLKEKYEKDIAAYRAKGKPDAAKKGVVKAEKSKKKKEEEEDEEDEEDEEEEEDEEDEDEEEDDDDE
From the text: We measured association and disassociation rates using the Octet (FIG. 26C).

T1 sequence (P01375 77-233 limits assumed): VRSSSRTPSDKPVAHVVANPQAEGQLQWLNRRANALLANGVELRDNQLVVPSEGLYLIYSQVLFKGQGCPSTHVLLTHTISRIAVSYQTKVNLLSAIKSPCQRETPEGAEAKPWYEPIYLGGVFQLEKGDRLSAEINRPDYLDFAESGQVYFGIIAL

B1: R41A6 Fc fusion protein (A6+Fc) (Fc fusion)
chain: NVSPPRRARVTDATETTITISWEHSEDDCYSYIYYFQVDAVPANGQTPIQRTISGYETYYTITGLQPGTDYKIYLYTLNSAGFCPPYSKPVVIDAST
notes: Expressed in E. coli BL-21(DE3) from pET-20b with pelB signal; it calls A6 alone monomeric; also called pET-20b+TNF A6+Fc #39; 14FN3-Fc fusion; not shown: C-terminal hexahistidine tag of pET-20b
B1 was tested, and the Kd (TNF-α [1]) was 24.8 nM and 14.9 nM and 11.7 nM, the koff (TNF-α [1]) was 0.000226 s⁻¹ and 0.00022 s⁻¹ and 0.000229 s⁻¹ and the kon (TNF-α [1]) was 9120 M⁻¹ s⁻¹ and 14900 M⁻¹ s⁻¹ and 19500 M⁻¹ s⁻¹.

B2: TNF-α binder R41A6 (designed binder)
chain: NVSPPRRARVTDATETTITISWEHSEDDCYSYIYYFQVDAVPANGQTPIQRTISGYETYYTITGLQPGTDYKIYLYTLNSAGFCPPYSKPVVIDAST
notes: 14FN3 scaffold variant from the tyrosine WTM library; Octet); The NcoI primer adds ATGGAA before the NVSPP start in the pET-20b construct; also called TNF A6; not shown: C-terminal hexahistidine tag from pET-20b (Octet), or c-myc + 6xHis tags from the phagemid (soluble ELISA)
For B2, the koff (TNF-α [2]) was 0.000438 s⁻¹ and 0.000267 s⁻¹.

B3: P2F3 anti-HMGB1 (designed binder)
chain: NVSPPRRARVTDATETTITIRWGVPHSFQVDAVPANGQTPIQRTIKRGVRSYTITGLQPGTDYKIYLYTLNDNARSSPVVIDAST
notes: soluble 6xHis-tagged protein in Octet; not shown: C-terminal tags from the phagemid incl; 6xHis (soluble form)
B3 showed a Kd (HMGB1) of 277 nM and a kon (HMGB1) of 97900 M⁻¹ s⁻¹.

— patent US20170253645A1 (published 2017)
